Assay results: publication PMC3079881 (Developmental cell, 2011)

Biological target: the molecule itself
Assay: negative-stain electron microscopy of purified complexes

B1: Cdc11 (natural protein, S. cerevisiae, UniProt P32458 1-415, looked up)
chain: MSGIIDASSALRKRKHLKRGITFTVMIVGQSGSGRSTFINTLCGQQVVDTSTTILLPTDTSTEIDLQLREETVELEDDEGVKIQLNIIDTPGFGDSLDNSPSFEIISDYIRHQYDEILLEESRVRRNPRFKDGRVHCCLYLINPTGHGLKEIDVEFIRQLGSLVNIIPVISKSDSLTRDELKLNKKLIMEDIDRWNLPIYNFPFDEDEISDEDYETNMYLRTLLPFAIIGSNEVYEMGGDVGTIRGRKYPWGILDVEDSSISDFVILRNALLISHLHDLKNYTHEILYERYRTEALSGESVAAESIRPNLTKLNGSSSSSTTTRRNTNPFKQSNNINNDVLNPASDMHGQSTGENNETYMTREEQIRLEEERLKAFEERVQQELLLKRQELLQREKELREIEARLEKEAKIKQEE
B1: binds.
